Results as given in patent US20030148343.

Tested on: RSG1.2 peptide (synthetic)
Test: FP
Conditions: about fifty fold greater RNA concentration than RRE1 required for similar polarization; 150 mM KCl, 5 mM MgCl2

In the case of “GGCUGGUAUGGGCGCAGCGUCAAUGACGCUGCGCCCAGGCCAGCC [RRE2 hairpin]”, the fold-higher RNA concentration than RRE1 for similar polarization is reported as 50 fold.
